Measured values published in patent US20230272113A1.

Target: human FLT3 on transfected CHO cells (human) (UniProt P36888)
Assay: FACS, scFv on CHO-human FLT3 cells pre-incubated with FLT3 ligand (competitor)

| Binder | median [+ligand]/median [w/o ligand]*100 [%] |
| --- | --- |
| FL-19 (scFv) scFv: QVTLKESGPTLVKPTETLTLTCTVSGFSLSYARMGVSWIRQPPGKALEWLAQIFSNDEKSYSTSLKSRLTISKDTSKSQVVLTMTDMDPEDTATYYCARIVGYGTGWYGYFDYWGQGTQVTVSSGGGGSGGGGSGGGGSDIQMTQSPSSLSASVGDRVTITCRASQDIGDDLGWYQQKPGKAPKRLIYAASTLQSGVPFRFSGSGSGTDFTLTISSLQPEDFATYYCLQHNSYPLTFGGGTKVEIK | > 75 |
| FL-17 (scFv) scFv: QVTLKESGPTLVKPTETLTLTCTVSGFSLSNARMGVSWIRQPPGKALEWLANIFSNDEKSYSTSLKSRLTISKGTSKSQVVLTMTNVNPVDTGTYYCARIVGYGSGWYGYFDYWGQGTLVTVSSGGGGSGGGGSGGGGSDIQMTQSPSSLSASVGDRVTITCRASQDIRNDLGWYQQKPGKAPKRLIYATSIRQSGVPSRFTGSGSGTEFTLTISGLQPEDFATYFCLQHNSFPLTFGGGTKVEIK | > 75 |
| FL-14 (scFv) scFv: QVTLKESGPALVKPTETLTLTCTLSGFSLNNARMAVSWIRQPPGKTLEWLAHIFSNDEKSYSTSLKSRLTISKDTSKGQVVLTMTNMDPVDTATYYCARIVGYGSGWYGYFDYWGQGTLVTVSSGGGGSGGGGSGGGGSDIQMTQSPSSLSASVGDRVTITCRASQDIRNDLGWYQQKPGKAPKRLIYAASTLQSGVPSRFSGSGSGTEFTLTISSLQPEDFATYYCLQHNSYPLTFGGGTKVEIK | > 75 |
| FL-20 (scFv) scFv: QVTLKESGPALVKPTETLTLTCTLSGFSLNNARMAVSWIRQPPGKTLEWLAHIFSNDEKSYSTSLKSRLTISKDTSKSQVVLTMTNMDPEDTATYYCARIVGYGTGWYGFFDYWGQGILVTVSSGGGGSGGGGSGGGGSDIQMTQSPSSLSASVGDRVTITCRASQGIRNDLAWYQQKPGKAPKRLIYAASSLQSGVPSRFSGSGSGTEFTLTISSLQPEDFATYYCLQHNSYPLTFGGGTKVEIK | > 75 |
| FL-16 (scFv) scFv: QVTLKESGPVLVKPTETLTLTCTVSGFSLRNARMAVSWIRQPPGKTLEWLAHIFSNDEKSYSTSLKSRLTISKDTSKSQVVLTMTNMDPVDTATYYCARIVGYGSGWYGYFDYWGQGTLVTVSSGGGGSGGGGSGGGGSDIQMTQSPSSVSASVGDRVTITCRASQDIRYDLAWYQQKPGKAPKRLIYAASSLQSGVPSRFSGSGSGTEFTLTISSLQPEDFATYYCLQHNFYPLTFGGGTKVEIK | > 75 |
| FL-15 (scFv) scFv: QVTLKESGPALVKPTETLTLTCTLSGFSLNNARMAVSWIRQPPGKTLEWLAHIFSNDEKSYSTSLKSRLTISKDTSKGQVVLTMTNMDPVDTATYYCARIVGYGSGWYGYFDYWGQGTLVTVSSGGGGSGGGGSGGGGSDIQMTQSPSSLSASVGDRVTITCRASQDIGNDLGWYQQKPGKAPKRLIYAASSLQSGVPSRFSGSGSGTEFTLTISSLQPEDFATYYCLQHNSYPLTFGGGTKVEIK | > 75 |
| FL-24 (scFv) scFv: QVTLKESGPALVKPTETLTLTCTVSGFSLRNVRMGVSWIRQPPGKALEWLAHIFSNDEKSYSTSLKSRLTISKDTSKSQVVLILTNMDPVDTATYFCARMPEYSSGWSGAFDIWGQGTMVTVSSGGGGSGGGGSGGGGSDIQMTQSPSSLSASVGDRVTITCRASQDIRDDLVWYQQKPGKAPKRLIYAASTLQSGVPSRFSGSGSGTEFTLTISSLQPEDFATYYCLQHHSYPWTFGQGTKVEIK | > 75 |
| FL-25 (scFv) scFv: QVTLKESGPALVKPTETLTLTCTVSGFSFRNARMGVSWIRQPPGKALEWLAHIFSNDEKSYSTSLKSRLTISKDTSKSQVVLTLTNMDPVDTATYFCARMPEYSSGWSGAFDIWGQGTMVTVSSGGGGSGGGGSGGGGSDIQMTQSPSSLSASVGDRVTITCRASQDIRDDLGWYQQKPGKAPKRLIYAASTLQSGVPSRFTGGGSGTEFTLTISSLQPEDFATYYCLQHNSFPFTFGGGTKVEIK | > 75 |
| FL-18 (scFv) scFv: QVTLKESGPVLVKPTQTLTLTCTFSGFSLSNARMGVSWIRQPPGKALEWLAHIFSNDEKSFSTSLKNRLTISKDTSKSQVVLTMTNMDPVDTATYYCARMVGYGSGWYAYFDYWGQGTQVTVSSGGGGSGGGGSGGGGSDIQMTQSPSSLSASVGDRVTITCRASQSISSYLNWYQQKPGKAPKLLIYAASSLQSGVPSRFSGSGSGTDFTLTISSLQPEDFATYYCLQHNSYPLTFGGGTKVEIK | > 75 |
| FL-22 (scFv) scFv: QVTLKESGPVLVKPTETLTLTCTVSGFSFRNARMGVSWIRQPPGKALEWLAHIFSNDEKSYSTSLKSRLTISKDTSKSQVVLTLTNMDPVDTATYFCARMPEYSSGWSGAFDIWGQGTMVTVSSGGGGSGGGGSGGGGSDIQMTQSPSSLSASVGDRVTITCRASQGISNYLAWYQQKPGKAPKRLIYAASTLQSGVPSRFSGSGSGTEFTLTISSLQPEDFATYYCLQHNTYPWTFGQGTKVEIK | > 75 |
| FL-27 (scFv) scFv: QVTLKESGPVLVKPTETLTLTCTVSGFSFRNARMGVSWIRQPPGKALEWLAHIFSNDEKSYSTSLKSRLTISKDTSKSQVVLTLTNMDPVDTATYFCARMPEYSSGWSGAFDIWGQGTMVTVSSGGGGSGGGGSGGGGSDIQMTQSPSSLSASVGDRVTITCRTSQGIRNDLVWYQQKPGKAPKRLIYAASTLQSGVPSRFSGSGSGTEFTLTISSLQPEDFATYFCLQHYSYPLTFGGGTKVEIK | > 75 |
| FL-26 (scFv) scFv: QVTLKESGPVLVKPTETLTLTCTVSGFSFRNARMGVSWIRQPPGKALEWLAHIFSNDEKSYSTSLKSRLTISKDTSKSQVVLTLTNMDPVDTATYFCARMPEYSSGWSGAFDIWGQGTMVTVSSGGGGSGGGGSGGGGSDIQMTQSPSSLSASVGDRVTITCRASQGIRNDLVWYQQKPGKAPKRLIYGTSTLQSGVPSRFSGSGSGTEFTLTISSLQPEDFATYYCLQHNSYPLTFGGGTKVEIK | > 75 |
| FL-23 (scFv) scFv: QVTLKESGPALVKPTETLTLTCTVSGFSFRNARMGVSWIRQPPGKALEWLAHIFSNDEKSYSTSLKSRLTISKDTSKSQVVLTLTNMDPVDTATYFCARMPEYSSGWSGAFDIWGQGTMVTVSSGGGGSGGGGSGGGGSDIQMTQSPSSLSASVGDRVTITCRASQDIGYDLGWYQQKPGKAPKRLIYAASTLQSGVPSRFSGSGSGTEFTLIISSLQPEDFATYYCLQHNSFPWTFGQGTKVEIK | > 75 |
| FL-21 (scFv) scFv: QVTLKESGPALVKPTETLTLTCTFSGFSLSNARMGVSWIRQPPGKALEWLAHIFSNDEKSYSTSLKSRLTISKDTSKSQVVLTMTNMDPVDTATYYCARIPGYGGNFYYHYYGMDVWGQGTTVTVSSGGGGSGGGGSGGGGSDIQMTQSPSSLSASVGDRVTITCRTSRGIRNDLGWYQQIPGRAPKRLIYAASTLQSGVPSRFSGSGSGTEFTLTISSLQPEDFATYYCLQHNNFPWTFGQGTKVEIK | > 75 |
